Data from paper doi:10.1101/2023.12.06.569572.

Target: Neurofibromin (NF1), recombinant full-length NF1 isoform 2 (human) (UniProt P21359)
Experiment: mass photometry
Settings: remark: other sources report otherwise

stoichiometry N: 2
Substance: Neurofibromin (NF1), recombinant full-length NF1 isoform 2, P21359 1-2839
